Biological target: dICB-huHF
Experiment: flow cytometry; LLC1 cells

B1: LLC1 (receptor)
chain: TIDTKRNISAEEGGSVILQCHFSSDTAEVTQVDWKQQDQLLAIYSVDLGWHVASVFSDRVVPGPSLGLTFQSLTMNDTGEYFCTYHTYPGGIYKGRIFLKVQESSDDRNGLAQFQTAPLG
- Kd: 32.3 nM
